From the supplement of paper PMC10724198
± gives the standard deviation of the averaged measurements.

test system: Saccharomyces cerevisiae; assay: protein stability index of tFT-peptide fusion (C-terminal peptide) (PSI (0-1 scale)); higher = more stable (slower turnover); settings: genetic background: wild type; temperature: 30 C
Description: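 Multiplexed protein stability (MPS) profiling in S. cerevisiae. Random 12-aa peptides (tFT-X12 library) are fused to the C-terminus of a sfGFP-mCherry tandem fluorescent timer, after mCherry and a GGGS linker. Cells are FACS-sorted into 8 mCherry/sfGFP bins and deep-sequenced. The protein stability index (PSI) is the read-weighted bin average, scaled from 0 (unstable) to 1 (stable). Only peptides with >10 reads are reported; cells were grown at 30 °C in SC-His with glucose.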
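Further: PSI is a weighted mean of sequencing reads over stability bins, variants kept only with over 10 reads, mCherry proximal and sfGFP distal, peptide attached via GGGS linker.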

| Sequence | protein stability index |
| --- | --- |
| GYTSGEEGAVTA | 0.624 ± 0.016 |
| HAPALSSTPRLL | 0.6836 ± 0.0064 |
| HAPPPPDASPPL | 0.677 ± 0.051 |
| HATPPAPHSVSS | 0.774 ± 0.036 |
| HCFWVVTGGSWF | 0.691 ± 0.06 |
| HCPIPWASLNCL | 0.665 ± 0.0082 |
| HDAPTRQLTLPG | 0.663 ± 0.031 |
| HDETKAYLAPGQ | 0.697 ± 0.037 |
| HFGPRTTLCAPD | 0.666 ± 0.034 |
| HGLESMNRYRWI | 0.555 ± 0.016 |
| HGLLDPLSILLY | 0.668 ± 0.013 |
| HGNFLTALVGRI | 0.669 ± 0.046 |
| HGSVGRIAHVLS | 0.6672 ± 0.0062 |
| HGVQEFRVAPEF | 0.738 ± 0.035 |
| HHEDGRPTCQAN | 0.677 ± 0.046 |
| HHPLGSPPVPPP | 0.729 ± 0.039 |
| HHPTQRPRHRLG | 0.683 ± 0.082 |
| HIKSENKEKGKI | 0.624 ± 0.022 |
| HILSPRPAIGVL | 0.612 ± 0.021 |
| HIPRLPRPTRAP | 0.682 ± 0.059 |
| HIYHIRFANKRG | 0.657 ± 0.013 |
| HKNPQKEVIAKT | 0.744 ± 0.058 |
| HLDVRGTRRMGT | 0.669 ± 0.042 |
| HLGPPPGRVFAV | 0.6194 ± 0.0052 |
| HLPGFAVVFPFP | 0.717 ± 0.032 |

| Sequence | protein stability index |
| --- | --- |
| HLPPMLSCTLRS | 0.657 ± 0.046 |
| HLPRHVSLLGPP | 0.671 ± 0.0079 |
| HLPSPLPSPSFH | 0.6061 ± 0.0017 |
| HLRPRYSLVPAT | 0.651 ± 0.048 |
| HLSPGRLPPPVQ | 0.7136 ± 0.006 |
| HMLSGRSFVRGD | 0.69 ± 0.038 |
| HNFYKLNLDHLK | 0.649 ± 0.061 |
| HPGPPPPPAAAA | 0.679 ± 0.007 |
| HPKPNLPPAAVH | 0.6854 ± 0.0049 |
| HPLFCPPPPPLA | 0.708 ± 0.036 |
| HPLPPPPRSPPS | 0.732 ± 0.011 |
| HPNGVMIGKNPT | 0.702 ± 0.023 |
| HPNKPTYLPSPY | 0.768 ± 0.1 |
| HPPAPSPPETSL | 0.69756 ± 0.0005 |
| HPPPFRLPPAPP | 0.639 ± 0.0072 |
| HPPPSLAASPPP | 0.544 ± 0.017 |
| HPPPSNYWPSSA | 0.658 ± 0.084 |
| HPPTLCPLSRRH | 0.659 ± 0.047 |
| HPRRLRPAHTPP | 0.725 ± 0.0075 |
| HPSFPPHRSPAS | 0.78 ± 0.023 |
| HPSRWPSPRAIL | 0.684 ± 0.051 |
| HPTRPHLPPFAP | 0.681 ± 0.066 |
| HQKQCRSNRHRG | 0.657 ± 0.05 |
| HRAFAAGFGVWG | 0.669 ± 0.067 |
| HRCPSPPWFHPS | 0.752 ± 0.071 |

| Sequence | protein stability index |
| --- | --- |
| HRILILSGLRAG | 0.626 ± 0.041 |
| HRPSPLPPRVPL | 0.673 ± 0.033 |
| HRRASYVLSPLS | 0.7413 ± 0.0073 |
| HRRGRVAQFAIS | 0.644 ± 0.029 |
| HRVNKKNCEEKT | 0.631 ± 0.053 |
| HRVVAATKSPSA | 0.727 ± 0.064 |
| HRYSGSTFSAVL | 0.728 ± 0.11 |
| HSLRPPPRHQQK | 0.689 ± 0.02 |
| HSNPPPRRHPTI | 0.756 ± 0.068 |
| HSQPPRRPSTNP | 0.792 ± 0.033 |
| HSSLPQPRELRT | 0.674 ± 0.021 |
| HSSPHFTTTKTP | 0.7081 ± 0.0016 |
| HSVPSCPKFSII | 0.66732 ± 0.00044 |
| HTDSKVVILFVP | 0.592 ± 0.014 |
| HTGLRASSPNST | 0.753 ± 0.052 |
| HTPAPLPPPLHP | 0.691 ± 0.011 |
| HTPPAPLPSSPH | 0.749 ± 0.0079 |
| HTPPMVGMLCLG | 0.6 ± 0.032 |
| HTSFQTNASPKD | 0.727 ± 0.031 |
| HVDSLPRPLLPS | 0.716 ± 0.056 |
| HVLCRAFLFLLP | 0.642 ± 0.016 |
| HVLHKPYRPGRP | 0.601 ± 0.0069 |
| HVPHFCLSPTII | 0.758 ± 0.14 |
| HVPRFLPFLSSL | 0.739 ± 0.033 |
| HVVLPPRYCISR | 0.696 ± 0.015 |

| Sequence | protein stability index |
| --- | --- |
| HWRRGGRSGGDR | 0.71 ± 0.033 |
| HWTLRRGTGIEL | 0.6693 ± 0.0061 |
| HYEIFSCDPGCD | 0.746 ± 0.024 |
| HYLHRDSLLRWL | 0.6182 ± 0.0033 |
| HYRLPLPPASPA | 0.701 ± 0.052 |
| HYSMAPIPHDNR | 0.711 ± 0.074 |
| IAASCGPRYKDS | 0.632 ± 0.077 |
| IADGSEIVRSLI | 0.71 ± 0.038 |
| IAEWVRLIVGEG | 0.671 ± 0.015 |
| IAVSWIRGGRIM | 0.849 ± 0.13 |
| ICCASALPFDIS | 0.784 ± 0.19 |
| IDVRRAIIPGLG | 0.595 ± 0.011 |
| IESLDRRGAEQI | 0.747 ± 0.045 |
| IFIPRFDLPSFP | 0.788 ± 0.16 |
| IFIVINGHFAGS | 0.66 ± 0.06 |
| IFKSLEKKTKRV | 0.766 ± 0.0086 |
| IFMHPRATLPAR | 0.73 ± 0.076 |
| IFRSLDFVFYFT | 0.646 ± 0.097 |
| IFSSFCPASFFL | 0.757 ± 0.031 |
| IGFNVEIRKGMG | 0.605 ± 0.082 |
| IGGRRGVTGIFV | 0.699 ± 0.064 |
| IGIGVAGERLGV | 0.612 ± 0.059 |
| IGIIFTKCGGRT | 0.688 ± 0.037 |
| IGKWIKKKKQKG | 0.631 ± 0.023 |
| IGLFWSGFFYGV | 0.743 ± 0.038 |

| Sequence | protein stability index |
| --- | --- |
| IGLRCPPPKPYA | 0.696 ± 0.035 |
| IGLRVLSNSYEV | 0.694 ± 0.031 |
| IGRRGINGLWGG | 0.627 ± 0.042 |
| IGRVFGMENIKM | 0.669 ± 0.014 |
| IGTGLVLFSPCY | 0.69 ± 0.022 |
| IGTKKVINDKLL | 0.675 ± 0.028 |
| IGVRSPSTHIVN | 0.72 ± 0.018 |
| IGWCRLRDRLVS | 0.556 ± 0.048 |
| IHRLPPSLFPLL | 0.776 ± 0.12 |
| IIKDITNRGYAW | 0.724 ± 0.073 |
| IIKKKKNKARDI | 0.734 ± 0.067 |
| IILHLTRPGLAL | 0.673 ± 0.013 |
| IILVVLSRLYVI | 0.5644 ± 0.003 |
| IIPQSCTSGGHT | 0.711 ± 0.061 |
| IIRKYKARKKNK | 0.688 ± 0.041 |
| IKIKKKKKRNKR | 0.685 ± 0.057 |
| IKKKNQKHKKKN | 0.7114 ± 0.0029 |
| IKKKTNYMNEKI | 0.661 ± 0.0096 |
| IKKQTKTKKKEF | 0.65 ± 0.058 |
| IKKRTSNRENKD | 0.7 ± 0.025 |
| IKKSRSLRIGMN | 0.584 ± 0.04 |
| IKNENKKKKNKK | 0.699 ± 0.024 |
| IKRKKKKKKKRD | 0.6558 ± 0.0015 |
| IKTKKKKKKKRD | 0.686 ± 0.0099 |
| IKTVSDFLIVKL | 0.6998 ± 0.0055 |

| Sequence | protein stability index |
| --- | --- |
| ILCFSLESPRYH | 0.6991 ± 0.0022 |
| ILCLPFSVSSPS | 0.61579 ± 0.00015 |
| ILCPSPAPTSFP | 0.6682 ± 0.0061 |
| ILLSVAMNLRKH | 0.571 ± 0.037 |
| ILNNSDRAYTIQ | 0.731 ± 0.04 |
| ILPFYAEGQLKF | 0.649 ± 0.05 |
| ILSASARPPRPA | 0.701 ± 0.011 |
| ILSGIGNGSGSE | 0.72 ± 0.06 |
| ILSPDRTHANET | 0.665 ± 0.083 |
| ILSPLRHPEPTR | 0.70614 ± 9.6e-05 |
| ILVAPAYYCWKV | 0.642 ± 0.045 |
| ILWVSPFFFSLD | 0.699 ± 0.064 |
| INLVKRQTVKPP | 0.611 ± 0.076 |
| INYSNQNKINRW | 0.6294 ± 0.00076 |
| IPGHRHTKRIFG | 0.641 ± 0.012 |
| IPPPLPPRAPLP | 0.672 ± 0.057 |
| IPRERPAEHYGG | 0.6473 ± 0.0018 |
| IPSPYPPPAPLH | 0.666 ± 0.011 |
| IPSRALSCLLPC | 0.66 ± 0.053 |
| IPSRGVQIPSWV | 0.63 ± 0.03 |
| IQAGHLYPESLV | 0.708 ± 0.056 |
| IQANLPLLTNQE | 0.6631 ± 0.0017 |
| IQDVGLKRLARV | 0.675 ± 0.061 |
| IQLQSNGLYSKK | 0.665 ± 0.065 |
| IQLRPFLSSPCR | 0.609 ± 0.035 |

| Sequence | protein stability index |
| --- | --- |
| IQPDVILLTRFV | 0.6592 ± 0.0033 |
| IQRIPSGSGRVR | 0.736 ± 0.058 |
| IREQGQSLCKST | 0.603 ± 0.029 |
| IRETTYSRPFQL | 0.695 ± 0.05 |
| IRGGSRLPFYSS | 0.731 ± 0.013 |
| IRKDRGYETGKR | 0.6746 ± 0.0043 |
| IRLQKEGIKKIL | 0.699 ± 0.019 |
| IRPDLWYGLAVV | 0.59 ± 0.023 |
| IRPSGVVPPRAG | 0.65 ± 0.048 |
| IRPSNLRPPSYL | 0.682 ± 0.022 |
| IRQITVTICRGR | 0.639 ± 0.067 |
| IRREETKRKRNL | 0.755 ± 0.044 |
| IRRNRGLKWNVN | 0.613 ± 0.068 |
| IRRRQKYPKKKS | 0.6803 ± 0.0059 |
| IRRTNRKETRKE | 0.686 ± 0.042 |
| IRSLRWVRRESV | 0.706 ± 0.1 |
| ISDRKARSDKNK | 0.656 ± 0.071 |
| ISILPDSIGQGA | 0.687 ± 0.055 |
| ISLCSVARLGFA | 0.704 ± 0.021 |
| ISSRSMGGCWHA | 0.673 ± 0.023 |
| ISVAHIPPVYHS | 0.643 ± 0.038 |
| ISVEELKSIKKK | 0.6296 ± 0.0019 |
| ISVPNPTRPDHP | 0.665 ± 0.063 |
| ISVSLWFRGRYY | 0.599 ± 0.034 |
| ISVSTDSPVRTW | 0.639 ± 0.023 |

| Sequence | protein stability index |
| --- | --- |
| ITEYKIKLKNKE | 0.671 ± 0.023 |
| ITIRGLTGRFRQ | 0.713 ± 0.17 |
| ITKELHEGEYLY | 0.727 ± 0.0086 |
| ITKTGAAEHASL | 0.63 ± 0.037 |
| ITLSLGRQQIEL | 0.654 ± 0.013 |
| ITMYAPEVDKRR | 0.709 ± 0.017 |
| ITSSPSSPPAPP | 0.634 ± 0.0096 |
| IVEKAVAKGIKE | 0.6767 ± 0.005 |
| IVFYWLAHRPCA | 0.6297 ± 0.0059 |
| IVGGDSVSALRG | 0.643 ± 0.022 |
| IVGLLGICVGRC | 0.57 ± 0.024 |
| IVLGGPAWPVAA | 0.613 ± 0.034 |
| IVLLNLTHVRSK | 0.647 ± 0.024 |
| IVRTDTKPYEQS | 0.587 ± 0.013 |
| IVSISCPADWLD | 0.754 ± 0.034 |
| IWAEYIDAVLIN | 0.6 ± 0.061 |
| IWGLSSLYGCGW | 0.728 ± 0.011 |
| IWLVRLSCARAF | 0.5374 ± 0.0019 |
| IYSPQIPTPPVL | 0.664 ± 0.058 |
| IYTRVWPQSWLP | 0.696 ± 0.038 |
| KAGLSFSRQRGW | 0.606 ± 0.058 |
